Measurements reported in patent US9988424 (DUKE UNIVERSITY, dated 2018).

How the values were obtained:
Env of SHIV-SF162P4 = Env of SHIV-SF162P4 (SHIV); assay: cell-based or functional assay
Env of AE.CM244 virus = Env of AE.CM244 virus (HIV-1); assay: cell-based or functional assay
Env of SHIV-1157ipEL-p = Env of SHIV-1157ipEL-p (SHIV); assay: cell-based or functional assay
Env of SHIV-BaL = Env of SHIV-BaL (SHIV); assay: cell-based or functional assay
Env of AE.92TH023 virus = Env of AE.92TH023 virus (HIV-1); assay: cell-based or functional assay
Env of SHIV-1157ipd3N4 = Env of SHIV-1157ipd3N4 (SHIV); assay: cell-based or functional assay
Env of SHIV SF162P3 = Env of SHIV SF162P3 (SHIV); assay: cell-based or functional assay
Env of B.MN virus = Env of B.MN virus (HIV-1); assay: cell-based or functional assay
A.Q23 V1V2 tags = A.Q23 V1V2 tags (HIV-1); assay: ELISA, OD405 at 10 ug/ml
C.1086 V1V2 Tags = C.1086 V1V2 Tags (HIV-1); assay: ELISA, OD405 at 10 ug/ml
gp70 B.CaseA2 V1/V2 = target: T1, gp70 B.CaseA2 V1/V2 (HIV-1 V1V2 on murine leukemia virus gp70); assay: ELISA, OD405 at 10 ug/ml
T1 construct: also called B.gp70CaseA2 V1/V2; gp70 B.CaseAV1V2
T1 chain: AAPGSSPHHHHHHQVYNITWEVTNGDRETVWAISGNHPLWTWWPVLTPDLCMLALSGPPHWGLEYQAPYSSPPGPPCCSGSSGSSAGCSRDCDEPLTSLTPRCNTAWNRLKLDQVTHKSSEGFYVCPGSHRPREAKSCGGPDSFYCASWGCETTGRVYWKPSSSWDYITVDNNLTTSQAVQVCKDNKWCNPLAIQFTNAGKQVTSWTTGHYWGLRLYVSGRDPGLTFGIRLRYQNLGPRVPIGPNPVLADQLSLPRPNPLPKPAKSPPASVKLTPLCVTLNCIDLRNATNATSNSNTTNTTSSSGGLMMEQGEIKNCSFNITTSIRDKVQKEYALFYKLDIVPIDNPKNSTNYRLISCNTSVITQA

Con 6 gp120 [1] = assay: ELISA, OD405 at 10 ug/ml
AE.con gp140CF [2] = assay: ELISA, OD405 at 10 ug/ml
B.62357 gp140C = target: T2, B.62357 gp140C; assay: ELISA, OD405 at 10 ug/ml
T2 construct: also called B.62357 140C

gp70 C.1086 V1/V2 = target: T3, gp70 C.1086 V1/V2 (HIV-1 V1V2 on murine leukemia virus gp70); assay: ELISA, OD405 at 10 ug/ml
T3 construct: also called C.gp70 1086C V1V2; C.1086gp70V1V2
T3 chain: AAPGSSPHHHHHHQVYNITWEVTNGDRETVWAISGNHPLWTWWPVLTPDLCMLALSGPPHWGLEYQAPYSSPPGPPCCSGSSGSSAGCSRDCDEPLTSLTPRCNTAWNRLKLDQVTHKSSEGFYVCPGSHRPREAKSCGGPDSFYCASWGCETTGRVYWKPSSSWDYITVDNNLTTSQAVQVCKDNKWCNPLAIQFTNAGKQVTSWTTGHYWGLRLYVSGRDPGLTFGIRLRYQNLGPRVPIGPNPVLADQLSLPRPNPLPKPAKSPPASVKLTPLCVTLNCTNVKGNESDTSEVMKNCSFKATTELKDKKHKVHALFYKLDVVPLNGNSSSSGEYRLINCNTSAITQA

D.9009SA V1/V2 tags = assay: ELISA, OD405 at 10 ug/ml
B.Case A2 V1/V2 tags [3] = assay: ELISA, OD405 at 10 ug/ml
B.HXB/BAL gp140CFI = target: T4, B.HXB/BAL gp140CFI (HIV-1, UniProt P04578 33-680); assay: ELISA, OD405 at 10 ug/ml
T4 construct: also called B.HxB/Ba gp140 CFI

B.9021 gp140C = B.9021 gp140C (HIV-1); assay: ELISA, OD405 at 10 ug/ml
A.9004SS V1/V2 tags = target: T5, A.9004SS V1/V2 tags; assay: ELISA, OD405 at 10 ug/ml
T5 V1V2 tags construct: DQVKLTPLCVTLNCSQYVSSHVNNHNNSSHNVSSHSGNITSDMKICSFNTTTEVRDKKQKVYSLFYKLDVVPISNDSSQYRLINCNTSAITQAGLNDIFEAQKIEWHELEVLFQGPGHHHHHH

AE.A244 V1V2 Tags = AE.A244 V1V2 Tags (HIV-1); assay: ELISA, OD405 at 10 ug/ml
Con 6 gp120 [4] = assay: ELISA, OD405
B.Case A2 V1/V2 Tags [5] = target: T6, B.Case A2 V1/V2 Tags; assay: ELISA, OD405
T6 Env construct: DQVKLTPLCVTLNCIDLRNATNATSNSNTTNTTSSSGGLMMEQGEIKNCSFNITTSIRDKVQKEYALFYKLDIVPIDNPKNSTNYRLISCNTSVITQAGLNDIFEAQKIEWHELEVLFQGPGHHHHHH

AE.con gp140CF [6] = target: T7, AE.con gp140CF; assay: ELISA, OD405
T7 construct: also called AE.con.env03 gp140CF

B.con gp140CF = target: T8, B.con gp140CF; assay: ELISA, OD405
T8 construct: also called B.con.env03 gp140CF

B.63521_V1V2 Tags = target: T9, B.63521_V1V2 Tags; assay: ELISA, OD405
T9 Env construct: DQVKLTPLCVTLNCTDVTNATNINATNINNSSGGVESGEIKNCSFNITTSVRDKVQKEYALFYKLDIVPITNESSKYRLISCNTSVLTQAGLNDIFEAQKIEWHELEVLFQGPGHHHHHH

A.9004SS V1V2 Tags = target: T10, A.9004SS V1V2 Tags; assay: ELISA, OD405
T10 Env construct: T5 V1V2 tags construct

B1: CH59 (antibody, V domains shown)
VH: EVQLVESGGGLVQPGRSLRLSCAASGFTFDDGAMHWVRQAPGKGLEWVSGISWNSNIIAYADSVKGRFTISRDNAKNSLYLEMNSLRVEDTALYYCAKDSPRGELPLNYWGQGTLVTVSS
VL: SYELTQPPSVSVSPGQTARITCSGDALPKNYAYWYQQKSGQAPVLVIYEDSKRPSGIPERFSGSSSGTMATLTISGAQVEDEADYYCYSTDSSGNHRVFGGGTKLTVL
notes: also called mAb CH59
Env of SHIV-SF162P4
  EC50, neutralization of SHIV-SF162P4: > 50 µg/mL
Env of AE.CM244 virus
  EC50, neutralization of AE.CM244: > 50 µg/mL
Env of SHIV-1157ipEL-p
  EC50, neutralization of SHIV-1157ipEL-p: 24.6 µg/mL
Env of SHIV-BaL
  EC50, neutralization of SHIV-BaL: > 50 µg/mL
Env of AE.92TH023 virus
  EC50, neutralization of AE.TH023: 12.1 µg/mL
Env of SHIV-1157ipd3N4
  EC50, neutralization of SHIV-1157ipd3N4: > 50 µg/mL
Env of SHIV SF162P3
  EC50, neutralization of SHIV SF162P3: > 50 µg/mL
Env of B.MN virus
  EC50, neutralization of B.MN: > 50 µg/mL

B2: PG16 reverted unmutated ancestor antibody (antibody, V domains shown)
VH: QVQLVESGGGVVQPGRSLRLSCAASGFTFSSYGMHWVRQAPGKGLEWVAVISYDGSNKYYADSVKGRFTISRDNSKNTLYLQMNSLRAEDTAVYYCAREAGGPIWHDDVKYYDFNDGYYYYYYMDVWGKGTTVTVSS
VL: QSALTQPASVSGSPGQSITISCTGTSSDVGSYNLVSWYQQHPGKAPKLMIYEVSKRPSGVSNRFSGSKSGNTASLTISGLQAEDEADYYCCSLTDRSHRIFGGGTKLTVL
notes: also called PG16 RUA; PG16_RUA
A.Q23 V1V2 tags
  binding result: no binding (tested: 10 ug/ml)
C.1086 V1V2 Tags
  binding result: no binding (tested: 10 ug/ml)
gp70 B.CaseA2 V1/V2
  binding result: no binding (tested: 10 ug/ml)
Con 6 gp120 [1]
  binding result: no binding (tested: 10 ug/ml)
AE.con gp140CF [2]
  binding result: no binding (tested: 10 ug/ml)
B.62357 gp140C
  binding result: no binding (tested: 10 ug/ml)
gp70 C.1086 V1/V2
  binding result: no binding (tested: 10 ug/ml)
D.9009SA V1/V2 tags
  binding result: no binding (tested: 10 ug/ml)
B.Case A2 V1/V2 tags [3]
  binding result: no binding (tested: 10 ug/ml)
B.HXB/BAL gp140CFI
  binding result: no binding (tested: 10 ug/ml)
B.9021 gp140C
  binding result: no binding (tested: 10 ug/ml)
A.9004SS V1/V2 tags
  binding result: no binding (tested: 10 ug/ml)
AE.A244 V1V2 Tags
  binding result: no binding (tested: 10 ug/ml)
Con 6 gp120 [4]
  binding result: no binding (tested: 10 ug/ml)
B.Case A2 V1/V2 Tags [5]
  binding result: no binding (tested: 10 ug/ml)
AE.con gp140CF [6]
  binding result: no binding (tested: 10 ug/ml)
B.con gp140CF
  binding result: no binding (tested: 10 ug/ml)
B.63521_V1V2 Tags
  binding result: no binding (tested: 10 ug/ml)
A.9004SS V1V2 Tags
  binding result: no binding (tested: 10 ug/ml)
